Source: doi:10.1101/2024.06.03.594717

Key:
GST-FBXO22-SKP1 (human) = GST-FBXO22-SKP1 (human) (UniProt Q8NEZ5); experiment: BLI; Octet Red 96, anti-GST probes loaded with 200 nM GST-FBXO22-SKP1, BACH1-BTB as analyte, 30°C; 25 mM HEPES pH 7.4, 100 mM NaCl, 1 mM TCEP, 0.1% Tween-20, 0.05 mg/mL BSA; Kd from steady-state equilibrium
[1] = biological target: Tag-free FBXO22-SKP1 complex (human) (UniProt Q8NEZ5); experiment: SEC-MALS; Superdex 200 10/300 GL, 20 mM Tris-HCl pH 8.0, 150 mM NaCl, 0.25 mM TCEP, room temperature; tag-free FBXO22-SKP1, His-BACH1-BTB and their mixture
Chain of Tag-free FBXO22-SKP1 complex (human) (Q8NEZ5 whole entry, chain 1 of 2): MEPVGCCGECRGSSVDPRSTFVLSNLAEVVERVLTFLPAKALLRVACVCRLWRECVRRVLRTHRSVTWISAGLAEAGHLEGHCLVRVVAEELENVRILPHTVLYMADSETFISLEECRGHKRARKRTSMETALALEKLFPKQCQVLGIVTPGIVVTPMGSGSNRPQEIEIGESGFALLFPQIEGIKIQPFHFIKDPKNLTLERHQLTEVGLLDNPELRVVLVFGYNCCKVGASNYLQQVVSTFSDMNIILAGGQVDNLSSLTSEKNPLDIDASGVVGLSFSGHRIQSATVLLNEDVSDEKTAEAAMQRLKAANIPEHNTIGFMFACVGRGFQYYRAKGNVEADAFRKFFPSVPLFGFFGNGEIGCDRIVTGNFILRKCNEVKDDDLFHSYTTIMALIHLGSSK
Chain of Tag-free FBXO22-SKP1 complex (human) (P63208 whole entry, chain 2 of 2, further chain): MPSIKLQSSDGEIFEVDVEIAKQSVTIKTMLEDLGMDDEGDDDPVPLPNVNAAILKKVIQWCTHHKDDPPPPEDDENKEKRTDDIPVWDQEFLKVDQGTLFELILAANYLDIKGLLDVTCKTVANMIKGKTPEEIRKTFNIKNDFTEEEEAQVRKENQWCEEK

Chain of BACH1 BTB domain (O14867 7-128): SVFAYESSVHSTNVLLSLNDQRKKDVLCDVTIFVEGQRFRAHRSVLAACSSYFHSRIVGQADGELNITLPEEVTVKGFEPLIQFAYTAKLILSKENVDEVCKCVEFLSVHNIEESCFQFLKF
Chain of His-BACH1-BTB (O14867 7-128): as above
Chain of GST-FBXO22-SKP1 (human) (Q8NEZ5 whole entry, chain 1 of 2): as the sequence (Q8NEZ5 whole entry, chain 1 of 2) above
Chain of GST-FBXO22-SKP1 (human) (P63208 whole entry, chain 2 of 2, further chain): as the sequence (P63208 whole entry, chain 2 of 2, further chain) above

Kd (GST-FBXO22-SKP1 (human))	stoichiometry N (FBXO22-SKP1 per BACH1 BTB dimer) [1]	Substance
90 nM		BACH1 BTB domain (from UniProt O14867 7-128) (domain or fragment)
	1	His-BACH1-BTB (from UniProt O14867 7-128) (domain or fragment)
